Our source for the Measured stability and Measured Affinity values is US12246067.

First the molecules themselves.
B1: KRAS, G12D peptide … (peptide)
peptide: LVVVGADGV
B2: KRAS, G12C peptide … (peptide)
peptide: LVVVGACGV
B3: KRAS, G12V peptide … (peptide)
peptide: LVVVGAVGV

In the first experiment the target is HLA-A02.01 (human). The experiment can be described thus: peptide-HLA class I complex stability, method not described. As to conditions: remark: other sources report otherwise.
With B1, the Measured stability came to 0 h.
The molecule B2 came in with a Measured stability of 0.6 h.
In turn, B3 returned a Measured stability of 0.6 h.

The target of the next experiment is HLA-A02.01 (human). Briefly: peptide-HLA class I affinity, method not described. As to conditions: remark: other sources report otherwise.
Molecule B1 had a Measured Affinity of 977 nM.
In turn, B2 gave a Measured Affinity of 667 nM.
The same measure, in the same setting: next, B3: 682 nM.
